# US7575883
# B1: recombinant GST-SIRT2 (protein)
# chain: MAEPDPSHPLETQAGKVQEAQDSDSDSEGGAAGGEADMDFLRNLFSQTLSLGSQKERLLDELTLEGVARYMQSERCRRVICLVGAGISTSAGIPDFRSPSTGLYDNLEKYHLPYPEAIFEISYFKKHPEPFFALAKELYPGQFKPTICHYFMRLLKDKGLLLRCYTQNIDTLERIAGLEQEDLVEAHGTFYTSHCVSASCRHEYPLSWMKEKIFSEVTPKCEDCQSLVKPDIVFFGESLPARFFSCMQSDFLKVDLLLVMGTSLQVQPFASLISKAPLSTPRLLINKEKAGQSDPFLGMIMGLGGGMDFDSKKAYRDVAWLGECDQGCLALAELLGWKKELEDLVRREHASIDAQSGAGVPNPSTSASPKKSPPPAKDEARTTEREKPQ
# B2: recombinant GST-SIRT3 (fragment of human SIRT3 lacking the first 100 amino acids of the N-terminus) (protein)
# chain: SISFSVGASSVVGSGGSSDKGKLSLQDVAELIRARACQRVVVMVGAGISTPSGIPDFRSPGSGLYSNLQQYDLPYPEAIFELPFFFHNPKPFFTLAKELYPGNYKPNVTHYFLRLLHDKGLLLRLYTQNIDGLERVSGIPASKLVEAHGTFASATCTVCQRPFPGEDIRADVMADRVPRCPVCTGVVKPDIVFFGEPLPQRFLLHVVDFPMADLLLILGTSLEVEPFASLTEAVRSSVPRLLINRDLVGPLAWHPRSRDVAQLGDVVHGVESLVELLGWTEEMRDLVQRETGKLDGPDK
# B3: cell derived SIRT3-GFP (pull down from 293T cell extracts) (protein)
# chain: MAFWGWRAAAALRLWGRVVERVEAGGGVGPFQACGCRLVLGGRDDVSAGLRGSHGARGEPLDPARPLQRPPRPEVPRAFRRQPRAAAPSFFFSSIKGGRRSISFSVGASSVVGSGGSSDKGKLSLQDVAELIRARACQRVVVMVGAGISTPSGIPDFRSPGSGLYSNLQQYDLPYPEAIFELPFFFHNPKPFFTLAKELYPGNYKPNVTHYFLRLLHDKGLLLRLYTQNIDGLERVSGIPASKLVEAHGTFASATCTVCQRPFPGEDIRADVMADRVPRCPVCTGVVKPDIVFFGEPLPQRFLLHVVDFPMADLLLILGTSLEVEPFASLTEAVRSSVPRLLINRDLVGPLAWHPRSRDVAQLGDVVHGVESLVELLGWTEEMRDLVQRETGKLDGPDK
# Biological target: chemically acetylated cytochrome c
Protein,"deacetylation activity, tritiated acetate release assay in vitro, with and without NAD","deacetylation activity, 14C-nicotinamide release assay in vitro"
B1,recombinant GST-SIRT2 deacetylates cytochrome c in a NAD dependent manner,
B2,recombinant GST-SIRT3 deacetylates cytochrome c in a NAD dependent manner,
B3,,cell derived SIRT3 deacetylates cytochrome c
